Reference: article PMC7986633 (Angewandte Chemie (International Ed. in English), 2021)

How the values were obtained:
native MS = target: the molecule itself; test: native MS
SEC-MALS + other: SAXS = target: the molecule itself; test: SEC-MALS + other: SAXS

B1: ECSITCTD (C‐terminal fragment of ECSIT, residues 248–431), purified (domain or fragment)
chain: PLPKDSTGAADPPQPHIVGIQSPDQQAALARHNPARPVFVEGPFSLWLRNKCVYYHILRADLLPPEEREVEETPEEWNLYYPMQLDLEYVRSGWDNYEFDINEVEEGPVFAMCMAGAHDQATMAKWIQGLQETNPTLAQIPVVFRLAGSTRELQTSSAGLEEPPLPEDHQEEDDNLQRQQQGQS
In the case of B1, the “stoichiometry N” value (native MS) is reported as at least 4 and the “stoichiometry N” value (SEC-MALS + other: SAXS) is reported as 2.

B2: ACAD9 (residues 38–621), recombinant, purified (enzyme)
chain: AFAKELFLGKIKKKEVFPFPEVSQDELNEINQFLGPVEKFFTEEVDSRKIDQEGKIPDETLEKLKSLGLFGLQVPEEYGGLGFSNTMYSRLGEIISMDGSITVTLAAHQAIGLKGIILAGTEEQKAKYLPKLASGEHIAAFCLTEPASGSDAASIRSRATLSEDKKHYILNGSKVWITNGGLANIFTVFAKTEVVDSDGSVKDKITAFIVERDFGGVTNGKPEDKLGIRGSNTCEVHFENTKIPVENILGEVGDGFKVAMNILNSGRFSMGSVVAGLLKRLIEMTAEYACTRKQFNKRLSEFGLIQEKFALMAQKAYVMESMTYLTAGMLDQPGFPDCSIEAAMVKVFSSEAAWQCVSEALQILGGLGYTRDYPYERILRDTRILLIFEGTNEILRMYIALTGLQHAGRILTTRIHELKQAKVSTVMDTVGRRLRDSLGRTVDLGLTGNHGVVHPSLADSANKFEENTYCFGRTVETLLLRFGKTIMEEQLVLKRVANILINLYGMTAVLSRASRSIRIGLRNHDHEVLLANTFCVEAYLQNLFSLSQLDKYAPENLDEQIKKVSQQILEKRAYICAHPLDRTC
With B2 the “stoichiometry N” value (native MS) was 2.
